Target: T1, pkd2_human PKD2 (UniProt Q13563)
T1 sequence: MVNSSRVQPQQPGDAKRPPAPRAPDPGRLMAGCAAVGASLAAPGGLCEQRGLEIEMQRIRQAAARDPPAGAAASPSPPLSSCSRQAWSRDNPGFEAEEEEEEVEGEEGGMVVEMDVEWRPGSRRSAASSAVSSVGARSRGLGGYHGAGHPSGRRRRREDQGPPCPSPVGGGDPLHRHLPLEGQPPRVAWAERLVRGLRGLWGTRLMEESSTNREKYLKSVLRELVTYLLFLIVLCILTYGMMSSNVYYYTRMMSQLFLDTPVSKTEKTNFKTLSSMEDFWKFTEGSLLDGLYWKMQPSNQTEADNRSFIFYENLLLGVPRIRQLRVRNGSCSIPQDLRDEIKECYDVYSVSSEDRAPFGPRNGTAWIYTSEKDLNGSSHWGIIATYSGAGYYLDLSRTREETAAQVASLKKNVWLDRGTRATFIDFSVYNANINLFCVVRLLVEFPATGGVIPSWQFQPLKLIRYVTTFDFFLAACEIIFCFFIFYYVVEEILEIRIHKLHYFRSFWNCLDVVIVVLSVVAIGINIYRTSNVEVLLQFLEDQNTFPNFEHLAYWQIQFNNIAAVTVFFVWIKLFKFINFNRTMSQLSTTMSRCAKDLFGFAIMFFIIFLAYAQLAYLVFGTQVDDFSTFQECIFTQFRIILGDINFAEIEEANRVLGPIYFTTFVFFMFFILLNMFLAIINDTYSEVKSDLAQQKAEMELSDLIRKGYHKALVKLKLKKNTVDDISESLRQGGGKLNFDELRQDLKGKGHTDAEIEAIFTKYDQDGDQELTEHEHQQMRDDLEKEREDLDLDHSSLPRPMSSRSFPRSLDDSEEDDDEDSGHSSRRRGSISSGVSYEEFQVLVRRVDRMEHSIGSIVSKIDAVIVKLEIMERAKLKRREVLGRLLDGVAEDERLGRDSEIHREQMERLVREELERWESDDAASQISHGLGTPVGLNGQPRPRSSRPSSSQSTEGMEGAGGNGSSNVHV

Polycystin-1 (Homo sapiens) (from UniProt P98161) Q4225P
effect of a mutation on the interaction: disrupting interaction

— IntAct's records for PubMed 20168298
